Assay results from the supplement of paper PMC9112550, “Optimization of the antimicrobial peptide Bac7 by deep mutational scanning” (BMC Biology, 2022).

Test system: Escherichia coli TOP10
Experiment: shrunken log2 fold change of peptide-encoding DNA abundance (4.5 h post-induction vs induction); higher = less antimicrobial activity (less host growth inhibition)
Conditions: time post-induction: 4.5 h; library: site-saturation at positions 5, 18, 19, 20
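Also: peptides expressed intracellularly from a pBAD plasmid library in pooled LB shake-flask culture, induced with 0.3% L-arabinose, DNA abundance read by NGS, three biological replicates, DESeq2 with apeglm shrinkage.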

Sequence	shrunken log2 fold change
RRIRQRPPRLPRPRPRPDKTPRP	-0.00926
RRIRWRPPRLPRPRPRPSNEPRP	0.0555
RRIRLRPPRLPRPRPRPWSHPRP	0.00674
RRIRFRPPRLPRPRPRPCTTPRP	-0.381
RRIRIRPPRLPRPRPRPPYIPRP	-0.299
RRIRNRPPRLPRPRPRPDTIPRP	-0.145
RRIRSRPPRLPRPRPRPSLEPRP	0.0147
RRIRRRPPRLPRPRPRPMIMPRP	-0.323
RRIRIRPPRLPRPRPRPTSCPRP	-0.0992
RRIRMRPPRLPRPRPRPASLPRP	-0.0145
RRIRGRPPRLPRPRPRPPYRPRP	0.388
RRIRERPPRLPRPRPRPYQHPRP	-0.106
RRIRYRPPRLPRPRPRPYWLPRP	-1.14
RRIRKRPPRLPRPRPRPGFTPRP	0.0173
RRIRVRPPRLPRPRPRPCKEPRP	-0.335
RRIRVRPPRLPRPRPRPWSRPRP	-0.273
RRIRARPPRLPRPRPRPRSSPRP	0.188
RRIRIRPPRLPRPRPRPIRIPRP	0.0736
RRIRIRPPRLPRPRPRPHDIPRP	-0.146
RRIRMRPPRLPRPRPRPGICPRP	0.507
RRIRRRPPRLPRPRPRPKREPRP	0.304
RRIRSRPPRLPRPRPRPVAFPRP	0.0876
RRIRMRPPRLPRPRPRPSYAPRP	-0.0187

Sequence	shrunken log2 fold change
RRIRSRPPRLPRPRPRPNPQPRP	0.126
RRIRARPPRLPRPRPRPATYPRP	0.0208
RRIRQRPPRLPRPRPRPTPSPRP	0.507
RRIRKRPPRLPRPRPRPQCHPRP	0.273
RRIRFRPPRLPRPRPRPQQRPRP	0.061
RRIRPRPPRLPRPRPRPDHLPRP	-0.172
RRIRKRPPRLPRPRPRPQSPPRP	0.18
RRIRGRPPRLPRPRPRPMIQPRP	0.522
RRIRSRPPRLPRPRPRPFWQPRP	0.909
RRIRMRPPRLPRPRPRPREEPRP	1.41
RRIRARPPRLPRPRPRPVVPPRP	0.496
RRIRRRPPRLPRPRPRPVPTPRP	0.472
RRIRLRPPRLPRPRPRPFYWPRP	0.228
RRIRMRPPRLPRPRPRPVDDPRP	-0.0248
RRIRIRPPRLPRPRPRPHKEPRP	0.0692
RRIRYRPPRLPRPRPRPHGRPRP	-0.00992
RRIRRRPPRLPRPRPRPMFFPRP	-0.0274
RRIRNRPPRLPRPRPRPYLCPRP	-0.0174
RRIRSRPPRLPRPRPRPHSAPRP	-0.891
RRIRERPPRLPRPRPRPSNDPRP	-0.247
RRIRVRPPRLPRPRPRPRQKPRP	0.212
RRIRERPPRLPRPRPRPPFLPRP	-0.075
RRIRLRPPRLPRPRPRPADTPRP	-0.538

Sequence	shrunken log2 fold change
RRIRYRPPRLPRPRPRPEGFPRP	-0.487
RRIRIRPPRLPRPRPRPYYDPRP	-0.0728
RRIRQRPPRLPRPRPRPVGSPRP	0.317
RRIRKRPPRLPRPRPRPYWCPRP	-0.485
RRIRERPPRLPRPRPRPMEGPRP	0.00131
RRIRARPPRLPRPRPRPSGYPRP	0.094
RRIRDRPPRLPRPRPRPGDHPRP	0.00849
RRIRIRPPRLPRPRPRPDPVPRP	-0.0546
RRIRIRPPRLPRPRPRPFWQPRP	-0.31
RRIRERPPRLPRPRPRPGFAPRP	0.604
RRIRDRPPRLPRPRPRPGIQPRP	-0.148
RRIRLRPPRLPRPRPRPCTTPRP	0.0144
RRIRKRPPRLPRPRPRPEVHPRP	0.013
RRIRVRPPRLPRPRPRPCPFPRP	-0.314
RRIRPRPPRLPRPRPRPGEMPRP	0.294
RRIRVRPPRLPRPRPRPERSPRP	0.276
RRIRERPPRLPRPRPRPRDPPRP	0.0576
RRIRPRPPRLPRPRPRPKCFPRP	0.434
RRIRFRPPRLPRPRPRPSPMPRP	1.17
RRIRIRPPRLPRPRPRPQEEPRP	0.0133
RRIRRRPPRLPRPRPRPLNEPRP	0.162
RRIRRRPPRLPRPRPRPKYNPRP	-0.384
RRIRTRPPRLPRPRPRPQYVPRP	-0.336

Sequence	shrunken log2 fold change
RRIRFRPPRLPRPRPRPVEDPRP	-0.264
RRIRPRPPRLPRPRPRPGCRPRP	0.289
RRIRKRPPRLPRPRPRPWCCPRP	-0.187
RRIRFRPPRLPRPRPRPGRCPRP	0.259
RRIRTRPPRLPRPRPRPRDFPRP	0.0849
RRIRYRPPRLPRPRPRPWVRPRP	-0.108
RRIRYRPPRLPRPRPRPGVNPRP	-3.04
RRIRYRPPRLPRPRPRPNGHPRP	-0.24
RRIRRRPPRLPRPRPRPWHIPRP	-0.246
RRIRERPPRLPRPRPRPSVSPRP	-0.335
RRIRPRPPRLPRPRPRPIATPRP	-0.159
RRIRERPPRLPRPRPRPTVPPRP	-0.237
RRIRDRPPRLPRPRPRPHMMPRP	0.158
RRIRWRPPRLPRPRPRPEKYPRP	-0.357
RRIRPRPPRLPRPRPRPPDIPRP	-0.602
RRIRPRPPRLPRPRPRPDVGPRP	0.181
RRIRIRPPRLPRPRPRPTCQPRP	-0.215
RRIRHRPPRLPRPRPRPKLKPRP	-0.0873
RRIRFRPPRLPRPRPRPRLQPRP	0.221
RRIRCRPPRLPRPRPRPDMIPRP	-0.69
RRIRDRPPRLPRPRPRPTMWPRP	0.176
RRIRTRPPRLPRPRPRPKMIPRP	0.013
